Test results reported in patent US20220193133A1 (CENTURY THERAPEUTICS, published 2022).
Substitutions are numbered along the chain they refer to. Read-outs that look alike come from different tables or passages of the source.

B1: huD04_CNTY1_D11 anti-idiotype VHH (periplasmic extract) (VHH)
VHH: EVQLLESGGGLVQPGGSLRLSCAASGSTFSYYYMGWYRQAPGKERELVSAISSGGSIYYADSVKGRFTISRDNSKNTLYLQMNSLRAEDTAVYYCARRTYYGDEADYWGQGTQVTVSS
notes: Screened as periplasmic extract; also called VHH of AMD87
B2: huD04_CNTY1_B12 anti-idiotype VHH (periplasmic extract) (VHH)
VHH: EVQLLESGGGLVQPGGSLRLSCAASGRTSSNYVMGWYRQAPGKEREGVSAITSGGSTYYADSVKGRFTISRDNSKNTLYLQMNSLRAEDTAVYYCAANLYSRTGAYDYWGQGTQVTVSS
notes: Screened as periplasmic extract; also called VHH of AMD82
B3: huD04_CNTY1_D12 anti-idiotype VHH (periplasmic extract) (VHH)
VHH: B2 VHH with R27F, T52S, G54S, S56R, N98A, L99Y, R102G, T103Y, A105E, Y106T
notes: Screened as periplasmic extract; also called VHH of AMD86
B4: huD04_CNTY1_D10 anti-idiotype VHH (periplasmic extract) (VHH)
VHH: EVQLLESGGGLVQPGGSLRLSCAASGRTSSNYVIGWYRQAPGKEREFVSAISGGGSTYYADSVKGRFTISRDNSKNTLYLQMNSLRAEDTAVYYCATRIYTARGAGDYWGQGTQVTVSS
notes: Screened as periplasmic extract; also called VHH of AMD88
B5: AMD88 (huD04_CNTY1_D10 anti-idiotype VHH IgG1-Fc fusion) (Fc fusion)
chain: B4 VHH
notes: not shown: IgG1 Fc
B6: humanized B11 VHH CAR (hyLYSO_CW_P01_B11) on Nurkat cells (other, not shown: small tags and cut ends)
chain: EVQLLESGGGLVQPGGSLRLSCAASGGIFSGGRMGWFRQAPGKEREFVAAVITRGGSTYYADSVKGRFTISRDNSKNTLYLQMNSLRAEDTAVYYCAASEVTYDEGRYIGTKSTYDTWGQGTQVTVSS
notes: also called B11 (p1649); P1649
B7: AMD77 (huD04_CNTY1_A11 anti-idiotype VHH IgG1-Fc fusion) (Fc fusion)
VHH: EVQLLESGGGLVQPGGSLRLSCAASGFTSSNYVMGWYRQAPGKEREFVSAIGSGGSTYYADSVKGRFTISRDNSKNTLYLQMNSLRAEDTAVYYCAAEIYTSGARDYWGQGTQVTVSS
modifications: Biotinylated in the FIG. 18 and FIG. 19 assays; the biotin sites are not stated.
notes: not shown: IgG1 Fc (and any hinge or linker to it)
B8: huB11_CNTY1_E11 anti-idiotype VHH (periplasmic extract) (VHH)
VHH: EVQLLESGGGLVQPGGSLRLSCAASGFAFSDYVMGWYRQAPGKEREFVSAIRSTTSTYYADSVKGRFTISRDNSKNTLYLQMNSLRAEDTAVYYCAADVWSGYEYDYWGQGTQVTVSS
notes: Screened as periplasmic extract; also called VHH of AMD75
B9: huB11_CNTY1_B11 anti-idiotype VHH (periplasmic extract) (VHH)
VHH: B8 VHH with F27L, D31S, V33A, A50V, R52S, S53G, T55G, S56E, Y58L
notes: Screened as periplasmic extract; also called VHH of AMD76
B10: p248 (other)
CAR: QVQLVESGGGLVQAGGSLRLSCAASGSIFSFYDVGWFRQAPGKEREFVAASITKGGGTYYVDSVKGRFTISRDNAKNTVYLQMNSLKPEDTAVYYCALATPHGYDFWGQGTQVTVSS
B11: LYSO_CW_P01_D04 VHH CAR (camelid D04) on Jurkat cells (other, not shown: small tags and cut ends)
chain: QVQLVESGGGLVQAGGSLRLSCAASGRIFSIYDTIGWFRQAPGKEREFVAATITTAGITTYDDSVKGRFTISRDNAKNTVYLQMNSLKPEDTAVYYCYVRVGRGDYWGQGTQVTVSS
notes: camelid (not humanized) VHH; also called D04 (p244)
B12: humanized D04 VHH CAR (hyLYSO_CW_P01_D04) on Nurkat cells or primary T cells (other, not shown: small tags and cut ends)
chain: B11 chain with Q1E, V5L, A14P, A76S, V80L, K88R, P89A
notes: also called D04 (p1648); P1650
B13: p253 (other)
CAR: QVQLVESGGGLVQAGGSLRLSCAASGSSFSIYDVGWFRQAPGKEREFVAATIETGGHTSYADSVKGRFTISRDNAKNTVYLQMNSLKPEDTAVYYCYAKIVYDQGPSYYYWGQGTQVTVSS

Experiments:
[1] = target: T1, B11 protein (humanized B11 VHH as ELISA antigen); assay: periplasmic extract ELISA, absorbance 450 nm, single point
T1 construct: Panning used B11-Fc; the ELISA legend says only 'B11 protein'

[2] = target: T2, D04 protein (humanized D04 VHH as ELISA antigen); assay: as above
T2 construct: Panning used biotinylated D04-Fc; the ELISA legend says only 'D04 protein'

[3] = target: T3, B11-his tagged VHH (humanized B11); assay: Octet (BLI), anti-idiotype VHH-Fc vs his-tagged VHH; table title prints D04-his, its footnote prints B11-his
T3 construct: also called B11-his protein; B11 his-tagged protein

[4] = target: T4, D04-his tagged VHH (humanized D04); assay: Octet (BLI), anti-idiotype VHH-Fc vs his-tagged VHH; table title prints B11-his, paragraph 353 ties these values to D04
T4 construct: also called LysoD04.His; D04 his-tagged protein

[5] = target: total human IgG from sera; assay: Octet (BLI) specificity analysis, sample vs analyte
[6] = target: T4, D04-his tagged VHH (humanized D04); assay: as above
[7] = target: the molecule itself; assay: as above
[8] = target: Fc-y fragment; assay: as above
[9] = target: PROT939 (an off target VHH-fc soluble); assay: as above
[10] = target: T5, D04-Fc (humanized D04 VHH Fc fusion); assay: as above
T5 construct: also called LysoD04.Fc; not shown: Fc

[11] = target: B6; assay: flow cytometry, VHH-Fc on CAR Nurkat cells, 3-fold dilutions 50 to 0.02 nM, anti-Fc APC, %Fc positive cells
Source text: […] Fc-fusion protein was detected via anti-Fc APC, and the percentage of cells that were positive for this detection method are shown. […] Controls include (i) no VHH-Fc added and (ii) the anti-VHH cocktail detection reagent (far right). The samples shown in the graphs for each protein appear in the order as specified in the legend.

[12] = target: T6, chicken lysozyme (Hen Egg Lysozyme) (chicken, UniProt P00698 19-147, biotinylated); assay: flow cytometry, CAR Nurkat cells + biotinylated HEL, streptavidin-APC, % positive cells
T6 construct: also called HEL; chicken egg white lysozyme
T6 sequence (P00698 19-147): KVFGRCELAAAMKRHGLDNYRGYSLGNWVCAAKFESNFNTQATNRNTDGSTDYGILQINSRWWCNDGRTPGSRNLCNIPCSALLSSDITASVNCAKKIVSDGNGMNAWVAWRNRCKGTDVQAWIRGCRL

[13] = target: T2, D04 protein (humanized D04 VHH as ELISA …); assay: periplasmic extract ELISA, absorbance 450 nm, single point; remark: listed apart in the source
[14] = target: T1, B11 protein (humanized B11 VHH as ELISA …); assay: as above; remark: listed apart in the source
[15] = target: T6, chicken lysozyme (Hen Egg Lysozyme); assay: flow cytometry, CAR Jurkat cells + 10 ug/mL biotinylated lysozyme, streptavidin-APC, % positive cells
[16] = target: T7, human lysozyme (human, UniProt P61626 19-148, biotinylated); assay: as above
T7 construct: also called human lysozyme protein
T7 sequence (looked up): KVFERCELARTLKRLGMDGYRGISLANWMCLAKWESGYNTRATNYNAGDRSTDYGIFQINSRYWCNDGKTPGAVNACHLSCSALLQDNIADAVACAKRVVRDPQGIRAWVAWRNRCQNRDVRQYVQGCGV

B1
binding result [1]: no binding

B2
binding result [1]: no binding

B3
binding result [1]: no binding
binding result [2]: binds

B4
binding result [1]: no binding

B5
Response [3]: -0.0183
Kd [4]: 72.3 nM
Response [4]: 0.289
koff [4]: 0.0425 s⁻¹
kon [4]: 588000 M⁻¹ s⁻¹
Response [5]: -0.0338
Response [6]: 0.0923
Response [7]: 0.149
Response [8]: -0.0261
Response [9]: -0.024
Response [10]: 2.18
binding result [11]: no binding (tested: 50 nM)

B6
binding result [12]: binds

B7
Kd [4]: 2.08 nM
Response [4]: 0.497
koff [4]: 0.00145 s⁻¹
kon [4]: 696000 M⁻¹ s⁻¹
Response [5]: -0.0155
Response [6]: 0.337
Response [8]: -0.009
Response [9]: -0.0053
Response [10]: 2.67

B8
binding result [13]: no binding

B9
binding result [14]: binds
binding result [13]: no binding

B10
binding result [15]: no binding (tested: 10 ug/mL)
binding result [16]: no binding (tested: 10 ug/mL)

B11
binding result [15]: binds
binding result [16]: no binding (tested: 10 ug/mL)

B12
binding result [12]: binds

B13
binding result [15]: binds
binding result [16]: no binding (tested: 10 ug/mL)
